The target of the test is T1, preMADH α subunit (Paracoccus denitrificans, UniProt P29894 29-417).
T1 sequence (looked up): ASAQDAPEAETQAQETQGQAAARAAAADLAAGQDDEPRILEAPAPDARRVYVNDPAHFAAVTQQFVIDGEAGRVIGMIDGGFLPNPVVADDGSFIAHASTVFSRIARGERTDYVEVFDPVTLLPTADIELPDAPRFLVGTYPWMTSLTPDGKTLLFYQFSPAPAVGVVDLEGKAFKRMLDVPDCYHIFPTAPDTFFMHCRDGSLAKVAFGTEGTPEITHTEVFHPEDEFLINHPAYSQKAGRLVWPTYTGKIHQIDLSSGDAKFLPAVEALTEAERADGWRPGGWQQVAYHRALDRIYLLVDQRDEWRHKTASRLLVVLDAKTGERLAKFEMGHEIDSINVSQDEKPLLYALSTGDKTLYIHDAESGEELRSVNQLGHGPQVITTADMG
Briefly: crystal structure.

One molecule from publication PMC2878131 (Science (New York, N.Y.), 2010) can be followed below.

B1: preMADH β subunit (natural protein, Paracoccus denitrificans, UniProt P22619 58-188, looked up)
chain: ADAPAGTDPRAKWVPQDNDIQACDYWRHCSIDGNICDCSGGSLTNCPPGTKLATASWVASCYNPTDGQSYLIAYRDCCGYNVSGRCPCLNTEGELPVYRPEFANDIIWCFGAEDDAMTYHCTISPIVGKAS
modifications: βTrp57 monohydroxylated at the C7 carbon of the indole ring; no cross-link between βTrp57 and βTrp108
In the case of B1, the binding result is “binds”.
